Source: the RNAGym collection of RNA variant scans (doi:10.1101/gr.219683.116)

B1: mRNA-splicing (parent)
chain: AGUUGCUGCUGGGAGCUCCAGCACAGUGAAAUGGACAGAAGGGCAGAGCAA

Variants of: B1
Assay: exon inclusion enrichment index; higher = more inclusion; WT1 exon 5 minigene, HEK293

| Variant | exon inclusion enrichment index |
| --- | --- |
| C6A U7C C9A U10C G12A G13A | 2.17 |
| C6A U7C C9A U10C G12A G13U | 1.08 |
| C6A U7C C9A U10C G12A G13C | 2.54 |
| C6A U7C C9A U10C G41U G42U | 2.65 |
| C6A U7C C9A U10C G41U G42C | 3.58 |
| C6A U7C C9A U10C G41U G42A | 1.6 |
| C6A U7C C9A U10C G21C | 3.66 |
| C6A U7C C9A U10C G21A | 3.08 |
| C6A U7C C9A U10C G21U | 3.09 |
| C6A U7C C9A U10C A47U G48U | 2.6 |
| C6A U7C C9A U10C A47U G48A | 2.69 |
| C6A U7C C9A U10C A47U G48C | 2.31 |
| C6A U7C C9A U10C G46U A47C | 3.45 |
| C6A U7C C9A U10C G46U A47U | 3.03 |
| C6A U7C C9A U10C G46U A47G | 2.8 |
| C6A U7C C9A U10C C18A C19U | 0.374 |
| C6A U7C C9A U10C C18A C19A | 1.44 |
| C6A U7C C9A U10C C18A C19G | 0.998 |
| C6A U7C C9A U10C G11C G12A | 2.17 |
| C6A U7C C9A U10C G11C G12U | 2.2 |
| C6A U7C C9A U10C G11C G12C | 2.59 |
| C6A U7C C9A U10C G46C | 2.33 |
| C6A U7C C9A U10C G46U | 2.22 |
| C6A U7C C9A U10C G46A | 2.98 |

| Variant | exon inclusion enrichment index |
| --- | --- |
| C6A U7C C9A U10C C24G A25C | 4.59 |
| C6A U7C C9A U10C C24G A25G | 2.34 |
| C6A U7C C9A U10C C24G A25U | 3.51 |
| C6A U7C C9A U10C G46C A47C | 2.51 |
| C6A U7C C9A U10C G46C A47G | 3.46 |
| C6A U7C C9A U10C G46C A47U | 2.64 |
| C6A U7C C9A U10C C19G A20G | 2.38 |
| C6A U7C C9A U10C C19G A20C | 3.87 |
| C6A U7C C9A U10C C19G A20U | 3.25 |
| C6A U7C C9A U10C A39U A40C | 3.44 |
| C6A U7C C9A U10C A39U A40U | 1.76 |
| C6A U7C C9A U10C A39U A40G | 1.39 |
| C6A U7C C9A U10C G38A A39G | 2.68 |
| C6A U7C C9A U10C G38A A39U | 0.332 |
| C6A U7C C9A U10C G38A A39C | 2.55 |
| C6A U7C C9A U10C G33U G34C | 1.4 |
| C6A U7C C9A U10C G33U G34U | 1.05 |
| C6A U7C C9A U10C G33U G34A | 0.907 |
| C6A U7C C9A U10C U17C C18U | 3.39 |
| C6A U7C C9A U10C U17C C18G | 3.74 |
| C6A U7C C9A U10C U17C C18A | 3.17 |
| C6A U7C C9A U10C C44A A45G | 4.86 |
| C6A U7C C9A U10C C44A A45U | 5.42 |
| C6A U7C C9A U10C C44A A45C | 4.04 |

| Variant | exon inclusion enrichment index |
| --- | --- |
| C6A U7C C9A U10C G12U G13U | 0.542 |
| C6A U7C C9A U10C G12U G13A | 1.25 |
| C6A U7C C9A U10C G12U G13C | 0.584 |
| C6A U7C C9A U10C C44G A45G | 1.29 |
| C6A U7C C9A U10C C44G A45U | 3.12 |
| C6A U7C C9A U10C C44G A45C | 4.25 |
| C6A U7C C9A U10C G13C A14G | 2.83 |
| C6A U7C C9A U10C G13C A14C | 2.43 |
| C6A U7C C9A U10C G13C A14U | 2.57 |
| C6A U7C C9A U10C A39G A40U | 0.497 |
| C6A U7C C9A U10C G15U C16A | 2.78 |
| C6A U7C C9A U10C G15U C16U | 3.12 |
| C6A U7C C9A U10C G15U C16G | 3.06 |
| C6A U7C C9A U10C U17G C18A | 3.29 |
| C6A U7C C9A U10C U17G C18U | 1.64 |
| C6A U7C C9A U10C U17G C18G | 2.57 |
| C6A U7C C9A U10G | 0.756 |
| C6A U7C C9A U10C G28A | 1.59 |
| C6A U7C C9A U10C G28U | 1.34 |
| C6A U7C C9A U10C G28C | 3.06 |
| C6A U7C C9A U10C C44A | 4.44 |
| C6A U7C C9A U10C C44U | 1.32 |
| C6A U7C C9A U10C C44G | 4.07 |
| C6A U7C C9A U10C G15U | 3.57 |

| Variant | exon inclusion enrichment index |
| --- | --- |
| C6A U7C C9A U10C G15C | 4 |
| C6A U7C C9A U10C G15A | 3.34 |
| C6A U7C C9A U10C U27G G28A | 3.19 |
| C6A U7C C9A U10C U27G G28C | 2.4 |
| C6A U7C C9A U10C U27G G28U | 0.0137 |
| C6A U7C C9A U10C G42A G43U | 4.39 |
| C6A U7C C9A U10C G42A G43A | 4.69 |
| C6A U7C C9A U10C G42A G43C | 4.49 |
| C6A U7C C9A U10C G33A G34A | 0.865 |
| C6A U7C C9A U10C G33A G34C | 1.06 |
| C6A U7C C9A U10C G33A G34U | 0.964 |
| C6A U7C C9A U10C G12C | 3.68 |
| C6A U7C C9A U10C G12A | 3.18 |
| C6A U7C C9A U10C G12U | 2.7 |
| C6A U7C C9A U10C G41C | 3.93 |
| C6A U7C C9A U10C G41U | 3.1 |
| C6A U7C C9A U10C G41A | 2.41 |
| C6A U7C C9A U10C G48A | 3.5 |
| C6A U7C C9A U10C G48C | 2.99 |
| C6A U7C C9A U10C G48U | 3.83 |
| C6A U7C C9A U10C C22G A23C | 1.74 |
| C6A U7C C9A U10C C22G A23G | 2.55 |
| C6A U7C C9A U10C C22G A23U | 0.87 |
| C6A U7C C9A U10C C22A | 3.18 |

| Variant | exon inclusion enrichment index |
| --- | --- |
| C6A U7C C9A U10C C22U | 2.84 |
| C6A U7C C9A U10C C22G | 3.9 |
| C6A U7C C9A U10C A47G | 0.844 |
| C6A U7C C9A U10C A47C | 3.27 |
| C6A U7C C9A U10C A47U | 2.86 |
| C6A U7C C9A U10C G13A | 3.32 |
| C6A U7C C9A U10C G13U | 1.08 |
| C6A U7C C9A U10C G13C | 2.83 |
| C6A U7C C9A U10C C16A U17G | 2.33 |
| C6A U7C C9A U10C C16A U17A | 3.43 |
| C6A U7C C9A U10C C16A U17C | 3.21 |
| C6A U7C C9A U10C A40U G41U | 1.9 |
| C6A U7C C9A U10C A40U G41A | 0.347 |
| C6A U7C C9A U10C A40U G41C | 3.18 |
| C6A U7C C9A U10C C16U U17G | 2.04 |
| C6A U7C C9A U10C C16U U17A | 2.9 |
| C6A U7C C9A U10C C16U U17C | 2.51 |
| C6A U7C C9A U10C A47C G48U | 3.09 |
| C6A U7C C9A U10C A47C G48A | 2.16 |
| C6A U7C C9A U10C A47C G48C | 2.81 |
| C6A U7C C9A U10C A40G G41A | 1.83 |
| C6A U7C C9A U10C A40G G41C | 3.6 |
| C6A U7C C9A U10C A40G G41U | 2.58 |
| C6A U7C C9A U10C G38U A39C | 2.79 |

| Variant | exon inclusion enrichment index |
| --- | --- |
| C6A U7C C9A U10C G38U A39U | 0.32 |
| C6A U7C C9A U10C G38U A39G | 1.89 |
| C6A U7C C9A U10C A40U | 2.61 |
| C6A U7C C9A U10C A40G | 3.27 |
| C6A U7C C9A U10C A40C | 3.36 |
| C6A U7C C9A U10C C19U A20C | 3.08 |
| C6A U7C C9A U10C C19U A20U | 2.13 |
| C6A U7C C9A U10C C19U A20G | 1.79 |
| C6A U7C C9A U10C G34C A35U | 0.98 |
| C6A U7C C9A U10C G34C A35G | 2.67 |
| C6A U7C C9A U10C G34C A35C | 0.445 |
| C6A U7C C9A U10C A45C G46C | 2.21 |
| C6A U7C C9A U10C A45C G46A | 1.88 |
| C6A U7C C9A U10C A45C G46U | 1.54 |
| C6A U7C C9A U10C C24U | 1.66 |
| C6A U7C C9A U10C C24G | 3.61 |
| C6A U7C C9A U10C C24A | 2.94 |
| C6A U7C C9A U10C C44U A45U | 2.71 |
| C6A U7C C9A U10C C44U A45C | 3.64 |
| C6A U7C C9A U10C C44U A45G | 2.34 |
| C6A U7C C9A U10C C19A | 2.55 |
| C6A U7C C9A U10C C19U | 0.759 |
| C6A U7C C9A U10C C19G | 3.61 |
| C6A U7C C9A U10C C16G U17A | 3.24 |

| Variant | exon inclusion enrichment index |
| --- | --- |
| C6A U7C C9A U10C C16G U17C | 1.82 |
| C6A U7C C9A U10C C16G U17G | 0.621 |
| C6A U7C C9A U10C C22A A23U | 2.92 |
| C6A U7C C9A U10C C22A A23G | 3.9 |
| C6A U7C C9A U10C C22A A23C | 3.88 |
| C6A U7C C9A U10C C18G C19U | 1.28 |
| C6A U7C C9A U10C C18G C19A | 3.84 |
| C6A U7C C9A U10C C18G C19G | 3.85 |
| C6A U7C C9A U10C G28U A29C | 2.72 |
| C6A U7C C9A U10C G28U A29G | 3.18 |
| C6A U7C C9A U10C G28U A29U | 1.26 |
| C6A U7C C9A U10C G26A U27A | 2.91 |
| C6A U7C C9A U10C G26A U27C | 4.65 |
| C6A U7C C9A U10C G26A U27G | 3.54 |
| C6A U7C C9A U10C U17A C18A | 3.1 |
| C6A U7C C9A U10C U17A C18U | 2.9 |
| C6A U7C C9A U10C U17A C18G | 2.68 |
| C6A U7C C9A U10C C36A A37G | 1.73 |
| C6A U7C C9A U10C C36A A37U | 2.17 |
| C6A U7C C9A U10C C36A A37C | 3.18 |
| C6A U7C C9A U10C C16G | 2.49 |
| C6A U7C C9A U10C C16U | 3.55 |
| C6A U7C C9A U10C C16A | 3.82 |
